According to paper PMC10058294, “Interaction of SARS-CoV-2 Nucleocapsid Protein and Human RNA Helicases DDX1 and DDX3X Modulates Their Activities on Double-Stranded RNA” (International Journal of Molecular Sciences, 2023):

Target: T1, recombinant full-length SARS-CoV-2 nucleocapsid protein (Np) (SARS-CoV-2, UniProt P0DTC9 1-419)
T1 construct: also called N protein; recombinant Np
Assay: pull-down
Settings: both partners purified

B1: HALO-tagged recombinant full-length human DDX3X (enzyme, UniProt O00571 1-662, looked up)
chain: MSHVAVENALGLDQQFAGLDLNSSDNQSGGSTASKGRYIPPHLRNREATKGFYDKDSSGWSSSKDKDAYSSFGSRSDSRGKSSFFSDRGSGSRGRFDDRGRSDYDGIGSRGDRSGFGKFERGGNSRWCDKSDEDDWSKPLPPSERLEQELFSGGNTGINFEKYDDIPVEATGNNCPPHIESFSDVEMGEIIMGNIELTRYTRPTPVQKHAIPIIKEKRDLMACAQTGSGKTAAFLLPILSQIYSDGPGEALRAMKENGRYGRRKQYPISLVLAPTRELAVQIYEEARKFSYRSRVRPCVVYGGADIGQQIRDLERGCHLLVATPGRLVDMMERGKIGLDFCKYLVLDEADRMLDMGFEPQIRRIVEQDTMPPKGVRHTMMFSATFPKEIQMLARDFLDEYIFLAVGRVGSTSENITQKVVWVEESDKRSFLLDLLNATGKDSLTLVFVETKKGADSLEDFLYHEGYACTSIHGDRSQRDREEALHQFRSGKSPILVATAVAARGLDISNVKHVINFDLPSDIEEYVHRIGRTGRVGNLGLATSFFNERNINITKDLLDLLVEAKQEVPSWLENMAYEHHYKGSSRGRSKSSRFSGGFGARDYRQSSGASSSSFSSSRASSSRSGGGGHGSSRGFGGGGYGGFYNSDGYGGNYNSQGVDWWGN
notes: TEV site between tag and DDX3X; The helicase and EMSA assays used another construct (pET30a(+)-DDX3X, purified from ShuffleT7 E. coli); also called HALO-DDX3X; Halo-tagged DDX3X; not shown: HaloTag, N-terminal, kept
B1: binds.
